Laboratory results from patent US20150344570A1 (published 2015).

T1: FcγRIIb (human, UniProt P31994 43-217)
T1 construct: extracellular domain; Soluble extracellular domain with C-terminal His tag, used as analyte; also called FcgRIIb; CD32B; not shown: His tag at the C terminus
T1 sequence (looked up): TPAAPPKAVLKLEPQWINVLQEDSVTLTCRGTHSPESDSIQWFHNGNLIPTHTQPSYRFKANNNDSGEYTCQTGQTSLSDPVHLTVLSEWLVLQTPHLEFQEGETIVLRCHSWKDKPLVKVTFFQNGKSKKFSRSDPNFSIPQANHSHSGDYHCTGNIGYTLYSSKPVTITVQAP


Columns and labels:
[1] = biological target: T2, FcγRIa (human, UniProt P12314 16-292); assay: SPR (Biacore), captured antibody, FcγR as analyte, relative binding
T2 construct: extracellular domain; Soluble extracellular domain with C-terminal His tag, used as analyte; also called FcgRI; CD64; not shown: His tag at the C terminus
Experimental: (§1) The heterodimerized antibodies He Abs in which one of the H chains was introduced with an alteration were assayed for their binding activities to each activating FcγR and inhibitory FcγR according to the method described in Example 4. […] The activating FcγRs in FIGS. 26, 27, 28, and 29 are FcγRIa, FcγRIIa (R), FcγRIIa (H), and FcγRIIIa, respectively.
(§2) Analysis of interaction between objective antibody and the FcγR was carried out using Biacore T100 (GE Healthcare). HBS-EP+ (GE Healthcare) was used as the running buffer, and the measurement temperature was set to 25° C. Chips produced by immobilizing the antigen peptide by the amine coupling method to a Series S Sencor Chip CM5 (GE Healthcare), or alternatively, chips produced by allowing preliminarily biotinylated antigen peptides to interact with and immobilize onto a Series S Sensor Chip SA (certified) (GE Healthcare) were used. Antibodies of interest were captured onto an antigen peptide-immobilized chip, and allowed to interact to each FcγR diluted with running buffer. To regenerate and repeatedly use the chip, the antibodies captured on the chip were washed off by reacting 10 mM glycine-HCl, pH 1.5.

[2] = biological target: T1, FcγRIIb; assay: as above
Experimental: as §1, §2

T2 sequence (P12314 16-292): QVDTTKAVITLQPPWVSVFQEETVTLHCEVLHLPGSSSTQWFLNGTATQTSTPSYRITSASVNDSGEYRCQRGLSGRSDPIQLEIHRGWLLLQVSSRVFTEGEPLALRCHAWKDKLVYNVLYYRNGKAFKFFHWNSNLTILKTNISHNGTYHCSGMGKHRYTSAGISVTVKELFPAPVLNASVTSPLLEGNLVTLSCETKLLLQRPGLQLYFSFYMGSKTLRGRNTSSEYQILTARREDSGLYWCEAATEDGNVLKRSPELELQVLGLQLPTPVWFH

Binder | He/Con_1a [1] | He/Con_2b [2]
GpH7-A5/GpH7-B3 variant I336_19Q/GpL16-k0 (antibody, human IgG1, kappa, He Ab: mutation in one H chain only; also called He Ab) heavy 1: not shown heavy 2: not shown light: DIVMTQSPLSLPVTPGEPASISCQASESLVHSNRNTYLHWYLQKPGQSPQLLIYKVSNRFSGVPDRFSGSGSGTDFTLKISRVEAEDVGVYYCSQNTHVPPTFGQGTKVEIERTVAAPSVFIFPPSDEQLKSGTASVVCLLNNFYPREAKVQWKVDNALQSGNSQESVTEQDSKDSTYSLSSTLTLSKADYEKHKVYACEVTHQGLSSPVTKSFNRGEC | 104 % of GpH7-A5/GpH7-B3/GpL16-k0 | 58.2 % of GpH7-A5/GpH7-B3/GpL16-k0
GpH7-A5/GpH7-B3 variant N325_05P/GpL16-k0 (antibody, human IgG1, kappa, He Ab: mutation in one H chain only; also called He Ab) heavy 1: not shown heavy 2: not shown light: DIVMTQSPLSLPVTPGEPASISCQASESLVHSNRNTYLHWYLQKPGQSPQLLIYKVSNRFSGVPDRFSGSGSGTDFTLKISRVEAEDVGVYYCSQNTHVPPTFGQGTKVEIERTVAAPSVFIFPPSDEQLKSGTASVVCLLNNFYPREAKVQWKVDNALQSGNSQESVTEQDSKDSTYSLSSTLTLSKADYEKHKVYACEVTHQGLSSPVTKSFNRGEC | 88.8 % of GpH7-A5/GpH7-B3/GpL16-k0 | 26 % of GpH7-A5/GpH7-B3/GpL16-k0
GpH7-A5/GpH7-B3 variant N325_16H/GpL16-k0 (antibody, human IgG1, kappa, He Ab: mutation in one H chain only; also called He Ab) heavy 1: not shown heavy 2: not shown light: DIVMTQSPLSLPVTPGEPASISCQASESLVHSNRNTYLHWYLQKPGQSPQLLIYKVSNRFSGVPDRFSGSGSGTDFTLKISRVEAEDVGVYYCSQNTHVPPTFGQGTKVEIERTVAAPSVFIFPPSDEQLKSGTASVVCLLNNFYPREAKVQWKVDNALQSGNSQESVTEQDSKDSTYSLSSTLTLSKADYEKHKVYACEVTHQGLSSPVTKSFNRGEC | 95.1 % of GpH7-A5/GpH7-B3/GpL16-k0 | 70.1 % of GpH7-A5/GpH7-B3/GpL16-k0
GpH7-A5/GpH7-B3 variant N325_11K/GpL16-k0 (antibody, human IgG1, kappa, He Ab: mutation in one H chain only; also called He Ab) heavy 1: not shown heavy 2: not shown light: DIVMTQSPLSLPVTPGEPASISCQASESLVHSNRNTYLHWYLQKPGQSPQLLIYKVSNRFSGVPDRFSGSGSGTDFTLKISRVEAEDVGVYYCSQNTHVPPTFGQGTKVEIERTVAAPSVFIFPPSDEQLKSGTASVVCLLNNFYPREAKVQWKVDNALQSGNSQESVTEQDSKDSTYSLSSTLTLSKADYEKHKVYACEVTHQGLSSPVTKSFNRGEC | 80.9 % of GpH7-A5/GpH7-B3/GpL16-k0 | 10.4 % of GpH7-A5/GpH7-B3/GpL16-k0
GpH7-A5/GpH7-B3 variant N325_12R/GpL16-k0 (antibody, human IgG1, kappa, He Ab: mutation in one H chain only; also called He Ab) heavy 1: not shown heavy 2: not shown light: DIVMTQSPLSLPVTPGEPASISCQASESLVHSNRNTYLHWYLQKPGQSPQLLIYKVSNRFSGVPDRFSGSGSGTDFTLKISRVEAEDVGVYYCSQNTHVPPTFGQGTKVEIERTVAAPSVFIFPPSDEQLKSGTASVVCLLNNFYPREAKVQWKVDNALQSGNSQESVTEQDSKDSTYSLSSTLTLSKADYEKHKVYACEVTHQGLSSPVTKSFNRGEC | 84.2 % of GpH7-A5/GpH7-B3/GpL16-k0 | 19.1 % of GpH7-A5/GpH7-B3/GpL16-k0

Next, values leading:

He/Con_1a [1] | He/Con_2b [2] | Binder
109 % of GpH7-A5/GpH7-B3/GpL16-k0 | 61.3 % of GpH7-A5/GpH7-B3/GpL16-k0 | GpH7-A5/GpH7-B3 variant S298_11K/GpL16-k0 (antibody, human IgG1, kappa, He Ab: mutation in one H chain only; also called He Ab) heavy 1: not shown heavy 2: not shown light: DIVMTQSPLSLPVTPGEPASISCQASESLVHSNRNTYLHWYLQKPGQSPQLLIYKVSNRFSGVPDRFSGSGSGTDFTLKISRVEAEDVGVYYCSQNTHVPPTFGQGTKVEIERTVAAPSVFIFPPSDEQLKSGTASVVCLLNNFYPREAKVQWKVDNALQSGNSQESVTEQDSKDSTYSLSSTLTLSKADYEKHKVYACEVTHQGLSSPVTKSFNRGEC
107 % of GpH7-A5/GpH7-B3/GpL16-k0 | 77.9 % of GpH7-A5/GpH7-B3/GpL16-k0 | GpH7-A5/GpH7-B3 variant S298_14T/GpL16-k0 (antibody, human IgG1, kappa, He Ab: mutation in one H chain only; also called He Ab) heavy 1: not shown heavy 2: not shown light: DIVMTQSPLSLPVTPGEPASISCQASESLVHSNRNTYLHWYLQKPGQSPQLLIYKVSNRFSGVPDRFSGSGSGTDFTLKISRVEAEDVGVYYCSQNTHVPPTFGQGTKVEIERTVAAPSVFIFPPSDEQLKSGTASVVCLLNNFYPREAKVQWKVDNALQSGNSQESVTEQDSKDSTYSLSSTLTLSKADYEKHKVYACEVTHQGLSSPVTKSFNRGEC
108 % of GpH7-A5/GpH7-B3/GpL16-k0 | 48.1 % of GpH7-A5/GpH7-B3/GpL16-k0 | GpH7-A5/GpH7-B3 variant S298_18N/GpL16-k0 (antibody, human IgG1, kappa, He Ab: mutation in one H chain only; also called He Ab) heavy 1: not shown heavy 2: not shown light: DIVMTQSPLSLPVTPGEPASISCQASESLVHSNRNTYLHWYLQKPGQSPQLLIYKVSNRFSGVPDRFSGSGSGTDFTLKISRVEAEDVGVYYCSQNTHVPPTFGQGTKVEIERTVAAPSVFIFPPSDEQLKSGTASVVCLLNNFYPREAKVQWKVDNALQSGNSQESVTEQDSKDSTYSLSSTLTLSKADYEKHKVYACEVTHQGLSSPVTKSFNRGEC
107 % of GpH7-A5/GpH7-B3/GpL16-k0 | 61.4 % of GpH7-A5/GpH7-B3/GpL16-k0 | GpH7-A5/GpH7-B3 variant S298_15Y/GpL16-k0 (antibody, human IgG1, kappa, He Ab: mutation in one H chain only; also called He Ab) heavy 1: not shown heavy 2: not shown light: DIVMTQSPLSLPVTPGEPASISCQASESLVHSNRNTYLHWYLQKPGQSPQLLIYKVSNRFSGVPDRFSGSGSGTDFTLKISRVEAEDVGVYYCSQNTHVPPTFGQGTKVEIERTVAAPSVFIFPPSDEQLKSGTASVVCLLNNFYPREAKVQWKVDNALQSGNSQESVTEQDSKDSTYSLSSTLTLSKADYEKHKVYACEVTHQGLSSPVTKSFNRGEC
